Experimental findings from US20130323187A1 are described below.

Broadly, the Ki is the dissociation constant of the complex between target and ligand, obtained from inhibition or displacement.

* marks the point of attachment. Decanoyl = CCCCCCCCCC(=O)*; CH2Cl = ClC*

The test system of one data set is T1, D-9Rac/am.
T1 sequence: XXXXXXXXXXXXX

The next data set deals with T2, D-6R.
T2 sequence: XXXXXXXXXX

The subject of data set [1] is T3, Decanoyl-Arg-Val-Lys-Arg-CMK (FI-I, CALBIOCHEM).
T3 sequence: RVKR

The next data set has as its target Recombinant furin. Put plainly: Ki for inhibition of furin, given as the comparison in the Boc-RVRR-MCA enzyme assay.

Sequence of Recombinant furin (P09958 108-715): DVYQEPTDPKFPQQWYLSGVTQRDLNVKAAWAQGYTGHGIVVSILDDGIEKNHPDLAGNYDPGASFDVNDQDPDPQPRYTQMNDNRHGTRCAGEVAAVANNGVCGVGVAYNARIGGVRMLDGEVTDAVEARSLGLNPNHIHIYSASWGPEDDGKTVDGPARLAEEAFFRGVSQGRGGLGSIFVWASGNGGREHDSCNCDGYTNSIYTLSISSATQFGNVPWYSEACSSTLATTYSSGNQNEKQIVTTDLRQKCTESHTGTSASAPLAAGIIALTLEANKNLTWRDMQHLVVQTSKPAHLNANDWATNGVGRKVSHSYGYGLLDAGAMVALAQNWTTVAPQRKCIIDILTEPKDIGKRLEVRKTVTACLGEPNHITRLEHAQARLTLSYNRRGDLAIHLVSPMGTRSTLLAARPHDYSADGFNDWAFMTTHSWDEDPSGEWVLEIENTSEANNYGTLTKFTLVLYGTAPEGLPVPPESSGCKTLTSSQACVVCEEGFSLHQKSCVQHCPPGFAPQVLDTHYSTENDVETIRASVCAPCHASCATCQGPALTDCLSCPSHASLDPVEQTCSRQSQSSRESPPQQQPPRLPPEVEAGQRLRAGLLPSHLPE

In the case of Recombinant furin, the “in vitro furin activity (cleavage of Boc-RVRR-MCA)” value in the data set on D-9Rac/am was “inhibited to completion in vitro furin activity”; with L-Bel1, “inhibited to completion in vitro furin activity”; in the data set with D-6R, “inhibited to completion in vitro furin activity”; in data set [1], “furin activity is inhibited by the specific furin inhibitor Decanoyl (d)-RVKR-chloromethylketone (CMK)”.

Take Decanoyl-RVKR-CH2Cl [Decanoyl-Arg-Val-Lys-Arg-CMK (FI-I, CALBIOCHEM)]: the Ki with Recombinant furin stood at 1 nM.
